Measurements as given in the supplement of paper PMC5998384.

How the values were obtained:
[1] = system: HeLa Kyoto; assay: solubility in G1/S (NP-40 vs SDS abundance) (log2 ratio); higher = more soluble; details: cell cycle stage: G1/S
[2] = system: HeLa Kyoto; assay: melting temperature (median over replicates), in situ; higher = more thermally stable
[3] = system: HeLa Kyoto; assay: solubility change mitosis vs G1/S (difference of NP-40 vs SDS log2 ratios) (log2 ratio difference); higher = more soluble in mitosis
[4] = system: HeLa Kyoto; assay: thermal stability score vs G1/S (z-score of summed log2 fold changes over temperatures); higher = more thermally stable than in G1/S
[5] = cell cycle stage: early G1 (4.5 h after nocodazole release)
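For melting temperature (median over replicates), in situ in this document: HeLa Kyoto cells synchronized by double thymidine or nocodazole block, proteins quantified by TMT10plex mass spectrometry, three independent biological replicates.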
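For solubility change mitosis vs G1/S (difference of NP-40 vs SDS log2 ratios) in this document: synchronized HeLa Kyoto cells (double thymidine block for G1/S, nocodazole release for mitosis), protein amounts in NP-40 versus SDS lysates quantified by mass spectrometry, three biological replicates.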
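For solubility in G1/S (NP-40 vs SDS abundance) in this document: HeLa Kyoto cells arrested at G1/S by double thymidine block, proteins quantified by TMT10plex mass spectrometry in mild NP-40 versus SDS extracts, three biological replicates.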
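For thermal stability score vs G1/S (z-score of summed log2 fold changes over temperatures) in this document: synchronized HeLa Kyoto cells, proteins quantified by TMT10plex mass spectrometry, three biological replicates, mitosis taken 0.5 h after nocodazole release, G1/S directly after double thymidine block.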

| Sequence | solubility in G1/S (log2) [1] | melting temperature ([2]; cell cycle stage: G1/S) | solubility change mitosis (log2) [3] | thermal stability score [4, 5] | thermal stability score ([4]; cell cycle stage: mitosis) | melting temperature ([2]; cell cycle stage: mitosis) |
| --- | --- | --- | --- | --- | --- | --- |
| MGGKLSKKKKGYNVNDEKAKEKDKKAEGAATEEEGTPKESEPQAAAEPAEAKEGKEKPDQDAEGKAEEKEGEKDAAAAKEEAPKAEPEKTEGAAEAKAEPPKAPEQEQAAPGPAAGGEAPKAAEAAAAPAESAAPAAGEEPSKEEGEPKKTEAPAAPAAQETKSDGAPASDSKPGSSEAAPSSKETPAATEAPSSTPKAQGPAASAEEPKPVEAPAANSDQTVTVKE [BASP1] | -1.08 | 48.2 °C | 0.98 | -5.91 | -9.69 |  |
| MGGSASSQLDEGKCAYIRGKTEAAIKNFSPYYSRQYSVAFCNHVRTEVEQQRDLTSQFLKTKPPLAPGTILYEAELSQFSEDIKKWKERYVVVKNDYAVESYENKEAYQRGAAPKCRILPAGGKVLTSEDEYNLLSDRHFPDPLASSEKENTQPFVVLPKEFPVYLWQPFFRHGYFCFHEAADQKRFSALLSDCVRHLNHDYMKQMTFEAQAFLEAVQFFRQEKGHYGSWEMITGDEIQILSNLVMEELLPTLQTDLLPKMKGKKNDRKRTWLGLLEEAYTLVQHQVSEGLSALKEECRALTKGLEGTIRSDMDQIVNSKNYLIGKIKAMVAQPAEKSCLESVQPFLASILEELMGPVSSGFSEVRVLFEKEVNEVSQNFQTTKDSVQLKEHLDRLMNLPLHSVKMEPCYTKVNLLHERLQDLKSRFRFPHIDLVVQRTQNYMQELMENAVFTFEQLLSPHLQGEASKTAVAIEKVKLRVLKQYDYDSSTIRKKIFQEALVQITLPTVQKALASTCKPELQKYEQFIFADHTNMIHVENVYEEILHQILLDETLKVIKEAAILKKHNLFEDNMALPSESVSSLTDLKPPTGSNQASPARRASAILPGVLGSETLSNEVFQESEEEKQPEVPSSLAKGESLSLPGPSPPPDGTEQVIISRVDDPVVNPVATEDTAGLPGTCSSELEFGGTLEDEEPAQEEPEPITASGSLKALRKLLTASVEVPVDSAPVMEEDTNGESHVPQENEEEEEKEPSQAAAIHPDNCEESEVSEREAQPPCPEAHGEELGGFPEVGSPASPPASGGLTEEPLGPMEGELPGEACTLTAHEGRGGKCTEEGDASQQEGCTLGSDPICLSESQVSEEQEEMGGQSSAAQATASVNAEEIKVARIHECQWVVEDAPNPDVLLSHKDDVKEGEGGQESFPELPSEE [FAM129A] | 0.169 | 50 °C | -0.0907 | 1.18 | 2.35 | 49.7 °C |
| MGKKGKVGKSRRDKFYHLAKETGYRSRSAFKLIQLNRRFQFLQKARALLDLCAAPGGWLQVAAKFMPVSSLIVGVDLVPIKPLPNVVTLQQDITTERCRQALRKELKTWKVDVVLNDGAPNVGASWVHDAYSQAHLTLMALRLACDFLARGGSFITKVFRSRDYQPLLWIFQQLFRRVQATKPQASRHESAEIFVVCQGFLAPDKVDSKFFDPKFAFKEVEVQAKTVTELVTKKKPKAEGYAEGDLTLYHRTSVTDFLRAANPVDFLSKASEIMVDDEELAQHPATTEDIRVCCQDIRVLGRKELRSLLNWRTKLRRYVAKKLKEQAKALDISLSSGEEDEGDEEDSTAGTTKQPSKEEEEEEEEEQLNQTLAEMKAQEVAELKRKKKKLLREQRKQRERVELKMDLPGVSIADEGETGMFSLSTIRGHQLLEEVTQGDMSAADTFLSDLPRDDIYVSDVEDDGDDTSLDSDLDPEELAGVRGHQGLRDQKRMRLTEVQDDKEEEEEENPLLVPLEEKAVLQEEQANLWFSKGSFAGIEDDADEALEISQAQLLFENRRKGRQQQQKQQLPQTPPSCLKTEIMSPLYQDEAPKGTEASSGTEAATGLEGEEKDGISDSDSSTSSEEEESWEPLRGKKRSRGPKSDDDGFEIVPIEDPAKHRILDPEGLALGAVIASSKKAKRDLIDNSFNRYTFNEDEGELPEWFVQEEKQHRIRQLPVGKKEVEHYRKRWREINARPIKKVAEAKARKKRRMLKRLEQTRKKAEAVVNTVDISEREKVAQLRSLYKKAGLGKEKRHVTYVVAKKGVGRKVRRPAGVRGHFKVVDSRMKKDQRAQQRKEQKKKHKRK [FTSJ3] | -2.41 | 49.7 °C | 1.11 | 4.05 | 7.76 | 52 °C |
| MGKSDFLTPKAIANRIKSKGLQKLRWYCQMCQKQCRDENGFKCHCMSESHQRQLLLASENPQQFMDYFSEEFRNDFLELLRRRFGTKRVHNNIVYNEYISHREHIHMNATQWETLTDFTKWLGREGLCKVDETPKGWYIQYIDRDPETIRRQLELEKKKKQDLDDEEKTAKFIEEQVRRGLEGKEQEVPTFTELSRENDEEKVTFNLSKGACSSSGATSSKSSTLGPSALKTIGSSASVKRKESSQSSTQSKEKKKKKSALDEIMEIEEEKKRTARTDYWLQPEIIVKIITKKLGEKYHKKKAIVKEVIDKYTAVVKMIDSGDKLKLDQTHLETVIPAPGKRILVLNGGYRGNEGTLESINEKTFSATIVIETGPLKGRRVEGIQYEDISKLA [KIN] | -0.339 | 51.1 °C | 0.174 | 0.727 | 1.45 | 49.3 °C |
| MGLLDLCEEVFGTADLYRVLGVRREASDGEVRRGYHKVSLQVHPDRVGEGDKEDATRRFQILGKVYSVLSDREQRAVYDEQGTVDEDSPVLTQDRDWEAYWRLLFKKISLEDIQAFEKTYKGSEEELADIKQAYLDFKGDMDQIMESVLCVQYTEEPRIRNIIQQAIDAGEVPSYNAFVKESKQKMNARKRRAQEEAKEAEMSRKELGLDEGVDSLKAAIQSRQKDRQKEMDNFLAQMEAKYCKSSKGGGKKSALKKEKK [DNAJC9] | 0.502 | 52 °C | 0.21 | -3.62 | -5.66 | 51.8 °C |
| MGLLRGGLPCARAMARLGAVRSHYCALLLAAALAVCAFYYLGSGRETFSSATKRLKEARAGAPAAPSPPALELARGSVAPAPGAKAKSLEGGGAGPVDYHLLMMFTKAEHNAALQAKARVALRSLLRLAKFEAHEVLNLHFVSEEASREVAKGLLRELLPPAAGFKCKVIFHDVAVLTDKLFPIVEAMQKHFSAGLGTYYSDSIFFLSVAMHQIMPKEILQIIQLDLDLKFKTNIRELFEEFDSFLPGAIIGIAREMQPVYRHTFWQFRHENPQTRVGGPPPEGLPGFNSGVMLLNLEAMRQSPLYSRLLEPAQVQQLADKYHFRGHLGDQDFFTMIGMEHPKLFHVLDCTWNRQLCTWWRDHGYSDVFEAYFRCEGHVKIYHGNCNTPIPED [XXYLT1] | -0.0927 | 54.9 °C | -0.0858 | -1.07 | -1.02 | 54.7 °C |
| MGLQACLLGLFALILSGKCSYSPEPDQRRTLPPGWVSLGRADPEEELSLTFALRQQNVERLSELVQAVSDPSSPQYGKYLTLENVADLVRPSPLTLHTVQKWLLAAGAQKCHSVITQDFLTCWLSIRQAELLLPGAEFHHYVGGPTETHVVRSPHPYQLPQALAPHVDFVGGLHRFPPTSSLRQRPEPQVTGTVGLHLGVTPSVIRKRYNLTSQDVGSGTSNNSQACAQFLEQYFHDSDLAQFMRLFGGNFAHQASVARVVGQQGRGRAGIEASLDVQYLMSAGANISTWVYSSPGRHEGQEPFLQWLMLLSNESALPHVHTVSYGDDEDSLSSAYIQRVNTELMKAAARGLTLLFASGDSGAGCWSVSGRHQFRPTFPASSPYVTTVGGTSFQEPFLITNEIVDYISGGGFSNVFPRPSYQEEAVTKFLSSSPHLPPSSYFNASGRAYPDVAALSDGYWVVSNRVPIPWVSGTSASTPVFGGILSLINEHRILSGRPPLGFLNPRLYQQHGAGLFDVTRGCHESCLDEEVEGQGFCSGPGWDPVTGWGTPNFPALLKTLLNP [TPP1] | 0.472 | 53.8 °C | -0.0648 | -0.723 | -1.17 | 53.9 °C |
| MGLTVSALFSRIFGKKQMRILMVGLDAAGKTTILYKLKLGEIVTTIPTIGFNVETVEYKNICFTVWDVGGQDKIRPLWRHYFQNTQGLIFVVDSNDRERVQESADELQKMLQEDELRDAVLLVFANKQDMPNAMPVSELTDKLGLQHLRSRTWYVQATCATQGTGLYDGLDWLSHELSKR [ARF5] | -0.196 | 55.4 °C | -0.212 | 1.02 | 1.14 | 55.9 °C |
| MGMWASLDALWEMPAEKRIFGAVLLFSWTVYLWETFLAQRQRRIYKTTTHVPPELGQIMDSETFEKSRLYQLDKSTFSFWSGLYSETEGTLILLFGGIPYLWRLSGRFCGYAGFGPEYEITQSLVFLLLATLFSALTGLPWSLYNTFVIEEKHGFNQQTLGFFMKDAIKKFVVTQCILLPVSSLLLYIIKIGGDYFFIYAWLFTLVVSLVLVTIYADYIAPLFDKFTPLPEGKLKEEIEVMAKSIDFPLTKVYVVEGSKRSSHSNAYFYGFFKNKRIVLFDTLLEEYSVLNKDIQEDSGMEPRNEEEGNSEEIKAKVKNKKQGCKNEEVLAVLGHELGHWKLGHTVKNIIISQMNSFLCFFLFAVLIGRKELFAAFGFYDSQPTLIGLLIIFQFIFSPYNEVLSFCLTVLSRRFEFQADAFAKKLGKAKDLYSALIKLNKDNLGFPVSDWLFSMWHYSHPPLLERLQALKTMKQH [ZMPSTE24] | -0.147 | 55.2 °C | -0.171 | -0.261 | -0.906 | 54.4 °C |
